Experimental findings from publication PMC10663500, “High-throughput analysis system of interaction kinetics for data-driven antibody design” (Scientific Reports, 2023) are described below.

The chains are these.
B1: toripalimab Fab H.N61A (Fab, V domains shown)
VH: QGQLVQSGAEVKKPGASVKVSCKASGYTFTDYEMHWVRQAPIHGLEWIGVIESETGGTAYAQKFKGRVTITADKSTSTAYMELSSLRSEDTAVYYCAREGITTVATTYYWYFDVWGQGTTVTVSS
VL: DVVMTQSPLSLPVTLGQPASISCRSSQSIVHSNGNTYLEWYLQKPGQSPQLLIYKVSNRFSGVPDRFSGSGSGTDFTLKISRVEAEDVGVYYCFQGSHVPLTFGQGTKLEIK
notes: heavy chain of Sm3 with this change; numbers count from the chain's first residue; as the light chain of Sm3; source: Brevibacillus, culture supernatant (ammonium sulfate precipitate); not shown: 6xHis, C-terminal, kept; 6xHN, C-terminal, kept
B2: toripalimab Fab H.Q62Y (Fab, V domains shown)
VH: B1 VH with A61N, Q62Y
VL: B1 VL
notes: as for B1
B3: toripalimab Fab H.Y32A (Fab, V domains shown)
VH: B1 VH with Y32A, A61N
VL: B1 VL
notes: as for B1
B4: toripalimab Fab H.Q62A (Fab, V domains shown)
VH: B1 VH with A61N, Q62A
VL: B1 VL
notes: as for B1
B5: toripalimab Fab H.N61Y (Fab, V domains shown)
VH: B1 VH with A61Y
VL: B1 VL
notes: as for B1
B6: toripalimab Fab H.K63Y (Fab, V domains shown)
VH: B1 VH with A61N, K63Y
VL: B1 VL
notes: as for B1
B7: toripalimab Fab H.F64Y (Fab, V domains shown)
VH: B1 VH with A61N, F64Y
VL: B1 VL
notes: as for B1
B8: toripalimab Fab H.K63A (Fab, V domains shown)
VH: B1 VH with A61N, K63A
VL: B1 VL
notes: as for B1
B9: toripalimab Fab H.F64A (Fab, V domains shown)
VH: B1 VH with A61N, F64A
VL: B1 VL
notes: as for B1

Residue numbers refer to the chain shown, from its start.

T2 sequence (Q15116 24-167 C93S): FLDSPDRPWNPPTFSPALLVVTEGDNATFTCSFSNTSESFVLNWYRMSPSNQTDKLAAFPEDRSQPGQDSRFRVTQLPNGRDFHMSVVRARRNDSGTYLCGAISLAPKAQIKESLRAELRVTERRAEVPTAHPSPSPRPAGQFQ

The target in one test is T1, mouse programmed cell death protein 1 Fc fusion protein (mPD-1-Fc), mPD-1 C60S (aa 25-167) (Mus musculus, UniProt Q02242, stabilised).
T1 construct: not cleaved; source: Expi293F, purified (Protein A, SEC; dimeric fraction); not shown: Fc (human), C-terminal, kept
Briefly: SPR; Carterra LSA; Fab from the ammonium sulfate precipitate of the culture supernatant immobilised on a NiHC200M chip; hPD-1 (1-1024 nM) or mPD-1-Fc (4-1024 nM) as analyte, fourfold dilution series, no regeneration; HBS-EP pH 7.4, 25 °C; medians over the spots of a construct, KD = koff/kon. Conditions: one partner purified. The essentials:
(§1)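 Human PD-1 (1–1024 nM) or mouse PD-1-Fc (4–1024 nM), in fourfold series, was flowed without regeneration over Fabs captured in duplicate on a NiHC200M chip (Carterra LSA, 25 °C), using 10 min association and 5 min dissociation. The Fabs had been recovered from Brevibacillus culture supernatants by ammonium sulfate precipitation and redissolved in HBS-EP. For binding constants, KD was defined as koff/kon from per-construct medians, with rates fitted by the kdka model under slow- or fast-dissociation settings (best fit) and unconfirmed binders set to kon 10^3 […] and koff 10^−2 s^−1.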
For the molecule B1, binding was characterised by a dissociation constant (Kd) of 32 nM; the dissociation rate constant (koff) (as a rule, a measure of how fast the partners let go of each other) was 0.00141 s⁻¹; the kon (usually the rate constant with which the complex forms) stood at 44100 M⁻¹ s⁻¹.
Turning to B2, the equilibrium dissociation constant (Kd) (in general, the equilibrium constant for the complex coming apart) was 186 nM; the koff was determined as 0.00625 s⁻¹; the kon was 33600 M⁻¹ s⁻¹.
B3 returned a dissociation constant Kd of 1310 nM, a dissociation rate constant (koff) of 0.0613 s⁻¹ and a kon of 46900 M⁻¹ s⁻¹.
As for B4, the dissociation constant (Kd) was determined as 153 nM, the koff worked out at 0.00564 s⁻¹ and the association rate constant (kon) turned out to be 37000 M⁻¹ s⁻¹.
As to B5, binding was put at a Kd of 147 nM, the koff turned out to be 0.00562 s⁻¹ and the on-rate constant (kon) stood at 38100 M⁻¹ s⁻¹.
Molecule B6 came in with a dissociation constant Kd of 75.7 nM, a koff of 0.00458 s⁻¹ and an on-rate constant (kon) of 60400 M⁻¹ s⁻¹.
The corresponding values for B7 are 36.3 nM, 0.00224 s⁻¹ and 61600 M⁻¹ s⁻¹.
On to B8, for which the dissociation constant Kd was determined as 71.3 nM, the off-rate constant (koff) worked out at 0.00524 s⁻¹ and the kon is 73600 M⁻¹ s⁻¹.
The corresponding values for B9 are 59.7 nM, 0.00193 s⁻¹ and 32400 M⁻¹ s⁻¹.

A further test has as its target T2, human programmed cell death protein 1 (hPD-1) C93S (aa 24-167) (Homo sapiens, UniProt Q15116, C93S).
T2 construct: made as a fusion with a TEV site and human Fc; the Fc was cut off with TEV protease; source: Expi293F, purified (Protein A, TEV cleavage of Fc, SEC; monomer fractions); not shown: Fc (human), C-terminal, cleaved
The test is described as above. Conditions: one partner purified. The essentials: as §1
B1: the equilibrium dissociation constant (Kd) is under 0.355 nM, the off-rate constant (koff) is under 1e-05 s⁻¹ and the association rate constant (kon) came out at 28100 M⁻¹ s⁻¹.
The corresponding values for B2 are under 1.29 nM, under 1e-05 s⁻¹ and 7750 M⁻¹ s⁻¹.
Regarding B3, the affinity, expressed as Kd, was 4.68 nM; the koff worked out at 7.41e-05 s⁻¹; the kon was 15800 M⁻¹ s⁻¹.
In the case of B4, the equilibrium dissociation constant (Kd) was under 1.29 nM, the koff was under 1e-05 s⁻¹ and the kon amounted to 7730 M⁻¹ s⁻¹.
The molecule B5 showed a Kd of under 0.156 nM, a koff of under 1e-05 s⁻¹ and a kon of 64200 M⁻¹ s⁻¹.
With B6, the equilibrium dissociation constant (Kd) is under 0.226 nM, the koff is under 1e-05 s⁻¹ and the on-rate (kon) stood at 44300 M⁻¹ s⁻¹.
B7 returned a Kd of 1.17 nM, a koff of 3.98e-05 s⁻¹ and an on-rate (kon) of 34200 M⁻¹ s⁻¹.
Molecule B8 showed a dissociation constant (Kd) of under 0.248 nM, a dissociation rate constant (koff) of under 1e-05 s⁻¹ and an on-rate constant (kon) of 40300 M⁻¹ s⁻¹.
In turn, B9 yielded an equilibrium dissociation constant (Kd) of under 1.4 nM, a koff of under 1e-05 s⁻¹ and a kon of 7170 M⁻¹ s⁻¹.
